Patent publication US20160348147A1, “SYSTEMS AND DEVICES FOR PROTEASE DETECTION BASED ON ENGINEERED POLYMERS AND BIOPOLYMERS AND METHODS OF USE” (DUKE UNIVERSITY, priority 2014, published 2016)

What was measured:
Format in all cases: biochemical
[1] = biological target: T1, Human MMP-1 catalytic domain (Homo sapiens, UniProt P03956); assay: Time-dependent aggregation (OD350) of ELP-substrate fusion with MMP-1 in proteolysis buffer; settings: 50 ng/mL MMP-1, without the inhibitor, proteolysis buffer, 40° C., 100 μM
T1 construct: Human MMP-1 catalytic domain (recombinant, produced in E. coli, 19.9 kDa, >95% purity); purchased Enzo Life Sciences (Farmingdale, N.Y.); host or cells: E. coli
T1 sequence (P03956 100-269 limits assumed): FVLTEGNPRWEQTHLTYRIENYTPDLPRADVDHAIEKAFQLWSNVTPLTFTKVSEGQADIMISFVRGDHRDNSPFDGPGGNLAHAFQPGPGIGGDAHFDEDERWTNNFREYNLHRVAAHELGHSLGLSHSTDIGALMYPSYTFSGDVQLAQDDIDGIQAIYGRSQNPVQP

[2] = biological target: T2, MMP-1 (Homo sapiens, UniProt P03956); assay: Thermal behavior (OD350, DLS) after incubation with MMP-1; settings: MMP-1 100 ng/mL, 12 h at 40° C.
T2 construct: Human MMP-1 catalytic domain (recombinant, produced in E. coli, 19.9 kDa, >95% purity); purchased Enzo Life Sciences (Farmingdale, N.Y.); host or cells: E. coli
T2 sequence (P03956 100-269 limits assumed): T1 sequence (P03956 100-269 limits assumed)
Experimental: (§1) We performed the proteolysis reactions either in 100% protease buffer or in a mixture of human serum and buffer (40% (v/v) serum, 50% (v/v) buffer, 10% (v/v) ELP-substrate solution in water). The proteolysis buffer (100 mM HEPES, CaCl2 20 mM, MgCl2 1.0 mM, ZnCl2 100 μM, NaCl 0.5 M for diluted serum and 0.1 M for buffer solutions) was made experimentally in our lab based on previously published assays (Patterson, J. & Hubbell, J. A. Biomaterials 2010, 31, 7836-7845; Turk, B. E. et al., Nature Biotechnology 2001, 19, 661-667; Lowe, S. B. et al., Acs Nano 2012, 6, 851-857). We investigated proteolysis in two ways. In the first approach, we incubated solutions of the ELP-substrate fusion with MMP-1 (100 ng/mL) for 12 h at 40° C. temperature and measured the optical density at 350 nm (OD350) before and after the incubation. In the second approach, we incubated the ELP-substrate fusion with varying concentrations of MMP-1 (0.02 ng/mL to 200 ng/mL) in buffer or in diluted human serum, at 40° C. or 37° C. respectively, a temperature that is above the CMT of the ELP, and monitored the changes OD350 as a function of time (kinetic study). For the kinetic studies, we added the enzyme to the solution after the optical density of the solution reached a steady-state value and repeated the experiments at least three times. […]

[3] = biological target: T2, MMP-1; assay: Mass spectrometry of ELP-substrate fusion before and after incubation with MMP-1; settings: 100 μM polypeptide, 100 ng/mL MMP-1, 2 h at 25° C., proteolysis buffer
Experimental: We confirmed the purity and molecular weight of the purified peptides by electrophoresis (10-20% gradient […] SDS-PAGE, Thermo Scientific, CA) and by matrix-assisted laser desorption/ionization mass spectrometry. Mass spectrometry samples were prepared by mixing the enzymatic reaction product with sinapinic acid in 1:10 ratio. 1 μL of the sample/matrix mixture was then loaded on the grid and the measurements were performed on a Voyager-DE-Pro instrument (Applied Biosystems, Germany). To determine the concentration of the ELP-substrate fusion solutions we used a calculated extinction coefficient (Gill, S. C. & Vonhippel, P. H. Analytical Biochemistry 1989, 182, 319-326) or lyophilized the polypeptide solution. We studied the thermal behavior of the ELP-substrate fusion constructs in both proteolysis buffer (see below) and diluted human serum in the presence and absence of MMP-1 using optical turbidimetry on a temperature-programmed UV-vis spectrometer (Cary 300, Agilent Technologies). To characterize the size of the micelles and aggregates, we used single angle dynamic light scattering (DLS; DynaPro, Protein Solution).
We used mass spectrometry to examine the cleavage of the MMP-1 substrate peptide in the ELP-substrate fusion by measuring the molecular weight of the polypeptides prior to, and after incubation with MMP-1. […]

[4] = system: endogenous MMP-1 in human serum; assay: Time-dependent aggregation (OD350) of ELP-substrate fusion in diluted human serum (40%); settings: diluted serum with no added MMP-1, 37° C.
Experimental: as §1

Substance: M(GVGVP)60GDGQVPMSMRGGDDEGQQDDEEGY (MGVGVPGDGQVPMSMRGGDDEGQQDDEEGY) [ELP-substrate fusion, recombinant polypeptide: ELP fused to MMP-1 substrate and charged hydrophilic peptide]
- aggregation time [1]: less than 50 min
- temperature above which large aggregates form after incubation with MMP-1 ([2]; 100 μM): ≈ 37 °C
- particle diameter after incubation with MMP-1 ([2]; DLS at 38° C.): over a micron
- cleavage of the MMP-1 substrate peptide (mass spectrometry) [3]: most of the 1.8 kDa MMP-sensitive peptide is cleaved off
- aggregation time [4]: ~350 min
